The supplement of paper PMC9112550, “Optimization of the antimicrobial peptide Bac7 by deep mutational scanning” (BMC Biology, 2022)

Test system: Escherichia coli TOP10
Assay: shrunken log2 fold change of peptide-encoding DNA abundance (4.5 h post-induction vs induction); higher = less antimicrobial activity (less host growth inhibition)
Details: time post-induction: 4.5 h; library: site-saturation at positions 5, 18, 19, 20
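Note: peptides expressed intracellularly from a pBAD plasmid library in pooled LB shake-flask culture, induced with 0.3% L-arabinose, DNA abundance read by NGS, three biological replicates, DESeq2 with apeglm shrinkage.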

Sequence	shrunken log2 fold change
RRIRNRPPRLPRPRPRPKVCPRP	-0.0345
RRIRPRPPRLPRPRPRPMVLPRP	0.0636
RRIRNRPPRLPRPRPRPTGVPRP	0.147
RRIRNRPPRLPRPRPRPVQHPRP	-0.258
RRIRPRPPRLPRPRPRPHCSPRP	-0.0583
RRIRQRPPRLPRPRPRPWEAPRP	-0.00204
RRIRWRPPRLPRPRPRPIDVPRP	-0.298
RRIRCRPPRLPRPRPRPWEPPRP	-0.00185
RRIRCRPPRLPRPRPRPLADPRP	0.4
RRIRMRPPRLPRPRPRPAEVPRP	0.411
RRIRIRPPRLPRPRPRPEFMPRP	-0.25
RRIRSRPPRLPRPRPRPLAEPRP	0.502
RRIRLRPPRLPRPRPRPCNEPRP	-0.0438
RRIRVRPPRLPRPRPRPWTDPRP	-0.0083
RRIRCRPPRLPRPRPRPLCLPRP	-0.525
RRIRIRPPRLPRPRPRPDEVPRP	-0.0316
RRIRIRPPRLPRPRPRPCFYPRP	-0.694
RRIRMRPPRLPRPRPRPGDMPRP	0.484
RRIRLRPPRLPRPRPRPRRKPRP	-0.00224
RRIRKRPPRLPRPRPRPSLKPRP	-0.0893
RRIRVRPPRLPRPRPRPGNCPRP	0.0986
RRIRTRPPRLPRPRPRPDCNPRP	0.0556
RRIRQRPPRLPRPRPRPHSKPRP	-0.328
RRIRGRPPRLPRPRPRPAMPPRP	0.492
RRIRIRPPRLPRPRPRPLAGPRP	0.00712

Sequence	shrunken log2 fold change
RRIRSRPPRLPRPRPRPYHQPRP	-0.203
RRIRMRPPRLPRPRPRPFGIPRP	0.0278
RRIRPRPPRLPRPRPRPKLAPRP	0.405
RRIRRRPPRLPRPRPRPLYDPRP	-0.0854
RRIRARPPRLPRPRPRPQDQPRP	0.302
RRIRLRPPRLPRPRPRPMPIPRP	0.301
RRIRVRPPRLPRPRPRPIAVPRP	0.0926
RRIRQRPPRLPRPRPRPHRSPRP	-0.00875
RRIRNRPPRLPRPRPRPTWKPRP	0.0378
RRIRMRPPRLPRPRPRPFFSPRP	0.195
RRIRQRPPRLPRPRPRPSVEPRP	0.218
RRIRFRPPRLPRPRPRPGKEPRP	-0.166
RRIRHRPPRLPRPRPRPSNDPRP	-0.849
RRIRNRPPRLPRPRPRPRLQPRP	0.0236
RRIRYRPPRLPRPRPRPTKAPRP	-0.0298
RRIRVRPPRLPRPRPRPPERPRP	0.257
RRIRRRPPRLPRPRPRPRFDPRP	0.121
RRIRDRPPRLPRPRPRPGSHPRP	0.235
RRIRPRPPRLPRPRPRPKQFPRP	-0.313
RRIRNRPPRLPRPRPRPQQIPRP	-0.23
RRIRMRPPRLPRPRPRPNTWPRP	0.454
RRIRWRPPRLPRPRPRPMDSPRP	-0.198
RRIRNRPPRLPRPRPRPMDGPRP	-0.261
RRIRFRPPRLPRPRPRPGCQPRP	-0.157
RRIRQRPPRLPRPRPRPKWWPRP	-0.0687

Sequence	shrunken log2 fold change
RRIRDRPPRLPRPRPRPRPKPRP	0.548
RRIRWRPPRLPRPRPRPFQGPRP	-0.249
RRIRFRPPRLPRPRPRPSCYPRP	-0.839
RRIRHRPPRLPRPRPRPCRRPRP	-0.131
RRIRPRPPRLPRPRPRPGSNPRP	-0.082
RRIRVRPPRLPRPRPRPQQYPRP	-0.258
RRIRARPPRLPRPRPRPNKWPRP	-0.0519
RRIRLRPPRLPRPRPRPHLGPRP	-0.105
RRIRRRPPRLPRPRPRPISWPRP	-0.166
RRIRWRPPRLPRPRPRPCYNPRP	-0.24
RRIRPRPPRLPRPRPRPCQEPRP	-0.0635
RRIRPRPPRLPRPRPRPLIQPRP	-0.0119
RRIRLRPPRLPRPRPRPLSAPRP	0.0846
RRIRNRPPRLPRPRPRPPSSPRP	-0.0814
RRIRKRPPRLPRPRPRPFFQPRP	0.346
RRIRCRPPRLPRPRPRPGDRPRP	0.0429
RRIRRRPPRLPRPRPRPVVHPRP	-0.157
RRIRDRPPRLPRPRPRPVELPRP	-0.0194
RRIRCRPPRLPRPRPRPSQVPRP	-0.156
RRIRWRPPRLPRPRPRPFKDPRP	-0.252
RRIRLRPPRLPRPRPRPTYSPRP	-0.572
RRIRFRPPRLPRPRPRPCEMPRP	0.0297
RRIRCRPPRLPRPRPRPRQRPRP	0.645
RRIRKRPPRLPRPRPRPKMWPRP	0.363
RRIRARPPRLPRPRPRPRFSPRP	0.308

Sequence	shrunken log2 fold change
RRIRNRPPRLPRPRPRPSNKPRP	-0.259
RRIRKRPPRLPRPRPRPGRSPRP	0.256
RRIRTRPPRLPRPRPRPWWMPRP	-0.133
RRIRARPPRLPRPRPRPMRNPRP	0.756
RRIRKRPPRLPRPRPRPMYQPRP	0.056
RRIRKRPPRLPRPRPRPYRGPRP	-0.231
RRIRPRPPRLPRPRPRPWEVPRP	-0.0677
RRIRWRPPRLPRPRPRPPEEPRP	1.26
RRIRIRPPRLPRPRPRPYGCPRP	0.0504
RRIRHRPPRLPRPRPRPIYEPRP	-0.234
RRIRKRPPRLPRPRPRPVRDPRP	0.48
RRIRWRPPRLPRPRPRPTLQPRP	0.253
RRIRNRPPRLPRPRPRPNGCPRP	-0.0605
RRIRLRPPRLPRPRPRPGYWPRP	-0.0133
RRIRPRPPRLPRPRPRPICTPRP	0.0424
RRIRGRPPRLPRPRPRPVPRPRP	0.806
RRIRYRPPRLPRPRPRPIVEPRP	0.00721
RRIRMRPPRLPRPRPRPCTLPRP	-0.192
RRIRWRPPRLPRPRPRPWFPPRP	-0.0213
RRIRNRPPRLPRPRPRPEFLPRP	0.00817
RRIRSRPPRLPRPRPRPLSIPRP	-0.447
RRIRARPPRLPRPRPRPIWVPRP	0.226
RRIRIRPPRLPRPRPRPQDVPRP	-0.0964
RRIRVRPPRLPRPRPRPGICPRP	-0.0598
RRIRPRPPRLPRPRPRPPLKPRP	0.441

Sequence	shrunken log2 fold change
RRIRNRPPRLPRPRPRPWTWPRP	-0.0415
RRIRQRPPRLPRPRPRPMLDPRP	-0.206
RRIRHRPPRLPRPRPRPYGEPRP	-1.23
RRIRTRPPRLPRPRPRPVTNPRP	-0.0277
RRIRHRPPRLPRPRPRPSHAPRP	0.0238
RRIRARPPRLPRPRPRPRQCPRP	0.353
RRIRSRPPRLPRPRPRPVDGPRP	0.826
RRIRSRPPRLPRPRPRPLCNPRP	-0.278
RRIRGRPPRLPRPRPRPCEIPRP	0.128
RRIRSRPPRLPRPRPRPYPRPRP	-0.45
RRIRGRPPRLPRPRPRPHKYPRP	-0.216
RRIRRRPPRLPRPRPRPCQAPRP	0.0144
RRIRARPPRLPRPRPRPQMSPRP	0.0835
RRIRPRPPRLPRPRPRPKSLPRP	-0.015
RRIRVRPPRLPRPRPRPTFCPRP	-0.0418
RRIRYRPPRLPRPRPRPFSHPRP	-0.0363
RRIRWRPPRLPRPRPRPLIQPRP	0.279
RRIRQRPPRLPRPRPRPKQQPRP	-0.141
RRIRRRPPRLPRPRPRPCWNPRP	-0.00252
RRIRLRPPRLPRPRPRPNDKPRP	-0.962
RRIRMRPPRLPRPRPRPLWYPRP	0.205
RRIRVRPPRLPRPRPRPYMAPRP	-0.629
RRIRRRPPRLPRPRPRPSRPPRP	0.464
RRIRFRPPRLPRPRPRPYWPPRP	-0.336
RRIRIRPPRLPRPRPRPGEIPRP	-0.123

Sequence	shrunken log2 fold change
RRIRKRPPRLPRPRPRPEVLPRP	1.57
RRIRERPPRLPRPRPRPCNMPRP	-0.101
RRIRFRPPRLPRPRPRPWVEPRP	-0.0273
RRIRHRPPRLPRPRPRPEVTPRP	0.05
RRIRQRPPRLPRPRPRPYNGPRP	-0.631
RRIRWRPPRLPRPRPRPIWNPRP	-0.114
RRIRYRPPRLPRPRPRPGCHPRP	-0.711
RRIRMRPPRLPRPRPRPRFKPRP	0.498
RRIRIRPPRLPRPRPRPKKCPRP	-0.0871
RRIRVRPPRLPRPRPRPDPIPRP	-0.00485
RRIRPRPPRLPRPRPRPHIDPRP	-0.215
RRIRNRPPRLPRPRPRPGRSPRP	0.17
RRIRLRPPRLPRPRPRPTFRPRP	0.0593
RRIRERPPRLPRPRPRPQLHPRP	-0.216
RRIRLRPPRLPRPRPRPPYSPRP	-0.125
RRIRLRPPRLPRPRPRPFDAPRP	0.509
RRIRERPPRLPRPRPRPKMNPRP	-0.642
RRIRLRPPRLPRPRPRPTWQPRP	0.187
RRIRIRPPRLPRPRPRPRHWPRP	-0.12
RRIRARPPRLPRPRPRPPRHPRP	0.937
RRIRGRPPRLPRPRPRPFQDPRP	-0.000102
RRIRYRPPRLPRPRPRPMWNPRP	-0.302
RRIRYRPPRLPRPRPRPANWPRP	-0.0751
RRIRQRPPRLPRPRPRPWWLPRP	0.27
RRIRYRPPRLPRPRPRPFSLPRP	-1.22
